Data taken from patent US20100286374A1.

Biological target: huIgG1 Fc (dummy) K409D&K392D (human) [IgG part: P0DOX5]
Assay: co-expression in 293-6E with M315 scFv-Fc D399′K; E357′K, non-reduced SDS-PAGE (FIG. 10), band density

huIgG1 Fc (dummy) K409D&K392D (from UniProt P0DOX5 218-449)
percentage of Dummy Fc Homodimer yield: 20.9%
